Experimental data reported in patent EP4631523A2.

Key:
[1] = target: interleukin 6 (IL-6) (UniProt P05231); test: IL-6 binding ELISA; 5±3°C, 6 months
[2] = target: interleukin 6 (IL-6) (UniProt P05231); test: IL-6 binding ELISA; 5±3°C, 3 months
[3] = target: interleukin 6 (IL-6) (UniProt P05231); test: IL-6 binding ELISA; 25±2°C, 6 months
[4] = target: interleukin 6 (IL-6) (UniProt P05231); test: IL-6 binding ELISA; 5±3°C, 0 months
[5] = target: interleukin 6 (IL-6) (UniProt P05231); test: IL-6 binding ELISA; 40±2°C, 3 months
[6] = target: interleukin 6 (IL-6) (UniProt P05231); test: IL-6 binding ELISA; 5±3°C, 3 months; remark: listed apart in the source
[7] = target: interleukin 6 (IL-6) (UniProt P05231); test: IL-6 binding ELISA; 25±2°C, 1 month
[8] = target: interleukin 6 (IL-6) (UniProt P05231); test: IL-6 binding ELISA; 40±2°C, 0 months
[9] = target: interleukin 6 (IL-6) (UniProt P05231); test: IL-6 binding ELISA; 25±2°C, 6 months; remark: listed apart in the source
[10] = target: interleukin 6 (IL-6) (UniProt P05231); test: IL-6 binding ELISA; 25±2°C, 3 months
[11] = target: interleukin 6 (IL-6) (UniProt P05231); test: IL-6 binding ELISA; 5±3°C, 3 months; remark: listed apart in the source
[12] = target: interleukin 6 (IL-6) (UniProt P05231); test: IL-6 binding ELISA; 40±2°C, 1 month
[13] = target: interleukin 6 (IL-6) (UniProt P05231); test: IL-6 binding ELISA, relative to a Phase I DS lot; 20 mg/mL formulation without methionine, 12 months at 2 to 8°C
[14] = target: interleukin 6 (IL-6) (UniProt P05231); test: IL-6 binding ELISA, relative to a Phase I DS lot; 120 mg/mL formulation without methionine, T0 (frozen aliquot)
[15] = target: interleukin 6 (IL-6) (UniProt P05231); test: IL-6 binding ELISA, relative to a Phase I DS lot; 50 mg/mL formulation without methionine, T0 (frozen aliquot)
[16] = target: interleukin 6 (IL-6) (UniProt P05231); test: IL-6 binding ELISA; 40±2°C, 1 month; remark: listed apart in the source
[17] = target: interleukin 6 (IL-6) (UniProt P05231); test: IL-6 binding ELISA; 40±2°C, 0 months; remark: listed apart in the source
[18] = target: interleukin 6 (IL-6) (UniProt P05231); test: IL-6 binding ELISA; 25±2°C, 0 months
[19] = target: interleukin 6 (IL-6) (UniProt P05231); test: IL-6 binding ELISA; 40±2°C, 3 months; remark: listed apart in the source
[20] = target: interleukin 6 (IL-6) (UniProt P05231); test: IL-6 binding ELISA; 25±2°C, 12 months
[21] = target: interleukin 6 (IL-6) (UniProt P05231); test: IL-6 binding ELISA; 5±3°C, 3 months; remark: listed apart in the source
[22] = target: interleukin 6 (IL-6) (UniProt P05231); test: IL-6 binding ELISA, relative to a Phase I DS lot; 120 mg/mL formulation without methionine, 9 months at 2 to 8°C
[23] = target: interleukin 6 (IL-6) (UniProt P05231); test: IL-6 binding ELISA; 25±2°C, 6 months; remark: listed apart in the source
[24] = target: interleukin 6 (IL-6) (UniProt P05231); test: IL-6 binding ELISA; 25±2°C, 3 months; remark: listed apart in the source
[25] = target: interleukin 6 (IL-6) (UniProt P05231); test: IL-6 binding ELISA; 40±2°C, 0 months; remark: listed apart in the source
[26] = target: interleukin 6 (IL-6) (UniProt P05231); test: IL-6 binding ELISA; 5±3°C, 0 months; remark: listed apart in the source
[27] = target: interleukin 6 (IL-6) (UniProt P05231); test: IL-6 binding ELISA; 5±3°C, 1 month
[28] = target: interleukin 6 (IL-6) (UniProt P05231); test: IL-6 binding ELISA; 25±2°C, 0 months; remark: listed apart in the source
[29] = target: interleukin 6 (IL-6) (UniProt P05231); test: IL-6 binding ELISA; 5±3°C, 1 month; remark: listed apart in the source
[30] = target: interleukin 6 (IL-6) (UniProt P05231); test: IL-6 binding ELISA; 5±3°C, 9 months
[31] = target: interleukin 6 (IL-6) (UniProt P05231); test: IL-6 binding ELISA; 25±2°C, 0 months; remark: listed apart in the source

Sequence of UniProt P05231 (P05231 30-212 limits assumed): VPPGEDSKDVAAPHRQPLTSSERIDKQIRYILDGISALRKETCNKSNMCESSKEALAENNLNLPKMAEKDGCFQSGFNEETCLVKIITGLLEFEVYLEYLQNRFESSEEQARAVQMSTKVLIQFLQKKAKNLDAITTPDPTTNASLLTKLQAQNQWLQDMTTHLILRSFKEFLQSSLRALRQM

IL-6 binding ELISA (% of Reference Standard) [1]: 92%
IL-6 binding ELISA (% of Reference Standard) [2]: 85%
IL-6 binding ELISA (% of Reference Standard) [3]: 81%
IL-6 binding ELISA (% of Reference Standard) [4]: 97%
IL-6 binding ELISA (% of Reference Standard) [5]: 86%
IL-6 binding ELISA (% of Reference Standard) [6]: 92%
IL-6 binding ELISA (% of Reference Standard) [7]: 95%
IL-6 binding ELISA (% of Reference Standard) [8]: 91%
IL-6 binding ELISA (% of Reference Standard) [9]: 82%
IL-6 binding ELISA (% of Reference Standard) [10]: 90%
IL-6 binding ELISA (% of Reference Standard) [11]: 93%
IL-6 binding ELISA (% of Reference Standard) [12]: 89%
IL-6 binding ELISA (% of assay control) [13]: 84%
IL-6 binding ELISA (% of assay control) [14]: 91%
IL-6 binding ELISA (% of assay control) [15]: 70%
IL-6 binding ELISA (% of Reference Standard) [16]: 95%
IL-6 binding ELISA (% of Reference Standard) [17]: 103%
IL-6 binding ELISA (% of Reference Standard) [18]: 94%
IL-6 binding ELISA (% of Reference Standard) [19]: 97%
IL-6 binding ELISA (% of Reference Standard) [20]: 95%
IL-6 binding ELISA (% of Reference Standard) [21]: 96%
IL-6 binding ELISA (% of assay control) [22]: 79%
IL-6 binding ELISA (% of Reference Standard) [23]: 100%
IL-6 binding ELISA (% of Reference Standard) [24]: 84%
IL-6 binding ELISA (% of Reference Standard) [25]: 94%
IL-6 binding ELISA (% of Reference Standard) [26]: 96%
IL-6 binding ELISA (% of Reference Standard) [27]: 98%
IL-6 binding ELISA (% of Reference Standard) [28]: 91%
IL-6 binding ELISA (% of Reference Standard) [29]: 86%
IL-6 binding ELISA (% of Reference Standard) [30]: 85%
IL-6 binding ELISA (% of Reference Standard) [31]: 96%
B1: COR-001 antibody (antibody, human IgG1, kappa, V domains shown)
VH: EVQLVESGGGLVQPGGSLRLSCAASGFTISSNYMIWVRQAPGKGLEWVSDLYYYAGDTYYADSVKGRFTMSRDISKNTVYLQMNSLRAEDTAVYYCARWADDHPPWIDLWGRGTLVTVSS
VL: DIQMTQSPSTLSASVGDRVTITCRASQGISSWLAWYQQKPGKAPKVLIYKASTLESGVPSRFSGSGSGTEFTLTISSLQPDDFATYYCQQSWLGGSFGQGTKLEIKR
